Tested on: MS2 coat protein
Assay: apparent KD of MS2 coat protein; higher = weaker reporter binding
Conditions: Eterna round: R107
Procedure, shortened: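 Designed RNA switches were transcribed on-chip from Illumina sequencing clusters and titrated with SNAP-549-labelled MS2 coat protein in twofold steps from 0.7 or 1.5 nM up to 3 µM. Each step lasted 0.8–1.5 h at first and 10–20 min by the end, in 100 mM Tris-HCl pH 7.5, 80 mM KCl and 4 mM MgCl2, without or with constant ligand. Apparent KD is the median, for each design, of fits to normalised cluster binding curves.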

[1] = input ligand: theophylline 20 uM
[2] = input ligand: theophylline 2 mM
[3] = input ligand: tryptophan 2.4 mM

CAAUAUAUAGCGGCCGCCACUUACUCAUGAGGUAACAACAUGAGGAUCACCCAUGUUUGAGGAUCAAGGACCGGGCUAUAUAUUG [AstrosSSTryB#6]
apparent KD of MS2 coat protein (input ligand: arginine 13.2 mM): 22.2 nM
apparent KD of MS2 coat protein [1]: 31.9 nM
apparent KD of MS2 coat protein [2]: 32.2 nM

CACAUGAGGAUCACCCAUGUCUGAACUGAAGGAGCGCUAAACAAGGCAGGUAGGUCGCGGAAUCCCGGGUGCAUAUGCACCCGGG [9.aA]
apparent KD of MS2 coat protein (input ligand: arginine 13.2 mM): 50.4 nM
apparent KD of MS2 coat protein (input ligand: none): 23.9 nM
apparent KD of MS2 coat protein [1]: 23.2 nM
apparent KD of MS2 coat protein [2]: 23.4 nM
apparent KD of MS2 coat protein [3]: 21.4 nM

CACGAAAGAUCGGCCGCCACUAACCUGUGUGUACUAGCACAUGAGGAUCACCCAUGUUCUUGCGUUAGGACCGGGAUUGAGCGUG [#04 Exclusion Tryptophan B]
apparent KD of MS2 coat protein (input ligand: arginine 13.2 mM): 20.9 nM
apparent KD of MS2 coat protein [1]: 30.7 nM
apparent KD of MS2 coat protein [2]: 27.5 nM

CACGGAAGAGUGGAUCACCCUCUUAAUAAACGAGGACCGGUACGGCCGCCACUCGAAAACCGUGACCUGUACGAAAAGUGCAGGA
apparent KD of MS2 coat protein (input ligand: arginine 13.2 mM): 31.3 nM
apparent KD of MS2 coat protein (input ligand: none): 39.4 nM
apparent KD of MS2 coat protein [1]: 202 nM
apparent KD of MS2 coat protein [2]: 437 nM
apparent KD of MS2 coat protein [3]: 127 nM

CAGCAACAAUUGGAUACCAGCCAUUACAGGUAUCAUUAUAACAUGAGGAUCACCCAUGUAGGCCCUUGGCAGCCAUUGGUGUAAG [theeternabot_exclusion_MS2_Theo_B_22]
apparent KD of MS2 coat protein (input ligand: arginine 13.2 mM): 27.5 nM
apparent KD of MS2 coat protein [1]: 69 nM
apparent KD of MS2 coat protein [3]: 40.5 nM

CAGCCUGAUUGGUAAAUCCCUCAUCGUGAUACCAGUCGAGUGAUCGACCCUUGGCAGCACAUGAGGAUCACCCAUGUGCGCGUAA [Raisener]
apparent KD of MS2 coat protein (input ligand: arginine 13.2 mM): 22 nM
apparent KD of MS2 coat protein [1]: 34.9 nM
apparent KD of MS2 coat protein [3]: 24 nM

CAUACUUUAGUAUGUAAUGUGGACAGUGAUACCAGAUACGAAAGUAUCCCUUGGCAGCACAACAUGAGGAUCACCCAUGUAUUUU [Theophylline A 3]
apparent KD of MS2 coat protein (input ligand: arginine 13.2 mM): 20.9 nM
apparent KD of MS2 coat protein [1]: 20 nM
apparent KD of MS2 coat protein [3]: 19.2 nM

CAUACUUUAUCCUAUGAGCCUAUUUGUGAUACCAGCAUCUAAAUUUGCCCUUGGCAGCACUUACAUGAGGAUCACCCAUGUUUUA [JR_NU_SSTheophyA_Sub028]
apparent KD of MS2 coat protein (input ligand: arginine 13.2 mM): 22 nM
apparent KD of MS2 coat protein [1]: 33.6 nM
apparent KD of MS2 coat protein [3]: 24 nM

CAUGGCUGUGCGGCCGCCACUGGCUCAUCCUGCAUUACAUGAGGAUCACCCAUGUUGCGGCCUCCCAGGACCGGGCAUAGCCUGA [Abediat]
apparent KD of MS2 coat protein (input ligand: arginine 13.2 mM): 39.5 nM
apparent KD of MS2 coat protein [1]: 511 nM
apparent KD of MS2 coat protein [2]: 571 nM

CAUGGGUGGGUGCUGCCACCCAUUGGUGAUACCAGCAUCGAAAGAUGCCCUUGGCAGCACCAACAUGAGGAUCACCCAUGUAAUA [(M)'-(T)'-(M)''-(T1)-(T2)-(M1)-(M2)_Design4]
apparent KD of MS2 coat protein (input ligand: arginine 13.2 mM): 58.6 nM
apparent KD of MS2 coat protein [1]: 145 nM
apparent KD of MS2 coat protein [3]: 67.8 nM

CAUGGGUGGUAUCACCCAUCCAUAGGUGAUACCAGCAUCGAAAGAUGCCCUUGGCAGCACCAACAUGAGGAUCACCCAUGUAAUA [(M)'-(T)'-(M)''-(T1)-(T2)-(M1)-(M2)_Design2]
apparent KD of MS2 coat protein (input ligand: arginine 13.2 mM): 48.1 nM
apparent KD of MS2 coat protein [1]: 189 nM
apparent KD of MS2 coat protein [3]: 354 nM

CCAUAGGGUAAAUACAUAAUCAUAUCUGAAGGAGCGUGGAUAAACACAGGUAGGUCGCAGAAUCACAUGAGGAUCACCCAUGUCU [Same State Arginine A GF11]
apparent KD of MS2 coat protein (input ligand: arginine 13.2 mM): 24.5 nM
apparent KD of MS2 coat protein (input ligand: none): 36.1 nM
apparent KD of MS2 coat protein [1]: 53.5 nM
apparent KD of MS2 coat protein [2]: 52.6 nM
apparent KD of MS2 coat protein [3]: 36.5 nM

CCAUGCAGGUCGGCCGCCACUACACACAUGAGGAUCACCCAUGUAGUUACUGGGUGAAGUGGCAGUAGGACCGGGACCUGCAUAU [Brourdmod11]
apparent KD of MS2 coat protein (input ligand: arginine 13.2 mM): 94.5 nM
apparent KD of MS2 coat protein (input ligand: none): 284 nM
apparent KD of MS2 coat protein [1]: 330 nM
apparent KD of MS2 coat protein [2]: 504 nM
apparent KD of MS2 coat protein [3]: 1020 nM

CCCGUAAAGGCGGCCGCCACUGUAUGACAUGAGGAUCACCCAUGUAGGGAAAAUGCGAUGGUCGUCAGGACCGGGCCUCUGGCAU [theeternabot_exclusion_MS2_Trp_B_5]
apparent KD of MS2 coat protein (input ligand: arginine 13.2 mM): 17.4 nM
apparent KD of MS2 coat protein [1]: 29.3 nM
apparent KD of MS2 coat protein [2]: 28.2 nM

CCUAUGACAUGAGGAUCACCCAUGUUGGAUACCAGCGCAUGAGGACGCCCUUGGCAGCCAAUGAACAUGAGGAUACAUGAGGAUC [Same State Theophylline A 4]
apparent KD of MS2 coat protein (input ligand: arginine 13.2 mM): 30.2 nM
apparent KD of MS2 coat protein [1]: 69.7 nM
apparent KD of MS2 coat protein [3]: 41.6 nM

— the supplement of paper PMC9170038
